Measurements from PMC11969024 (2025).

B1: peptide HD2 (from tick evasin EVA4) / CCL4 (biotinylated, synthetic) (parent complex)
chain 1: EEDDYTAYAPLTCYFT
chain 2: APMGSDPPTACCFSYTARKLPRNFVVDYYETSSLCSQPAVVFQTKRSKQVCADPSESWVQEYVYDLELN

Variants of: B1

Variant	enrichment
chain 1 EEDDYTAYAPLTCRFT	-4.11 log2 (difference from the parental peptide)
chain 1 EEDDYTAYAGLTCYFT	-6.62 log2 (difference from the parental peptide)
chain 1 EEDDYTAYAPLTCYFM	0.277 log2 (difference from the parental peptide)
chain 1 EEDDYTAYAPLTCGFT	-6.07 log2 (difference from the parental peptide)
chain 1 EEDDYTAYAPLTPYFT	-9.17 log2 (difference from the parental peptide)
chain 1 EEDDYTAYAPLTCYFL	0.489 log2 (difference from the parental peptide)
chain 1 EEDDYTAAAPLTCYFT	-1.67 log2 (difference from the parental peptide)
chain 1 EEDDYTAYATLTCYFT	-7.43 log2 (difference from the parental peptide)
chain 1 EEDDYTMYAPLTCYFT	2.06 log2 (difference from the parental peptide)
chain 1 EEDDYTAYAPLTCYFR	-0.298 log2 (difference from the parental peptide)
chain 1 EEDNYTAYAPLTCYFT	-2.63 log2 (difference from the parental peptide)
chain 1 EEDDYTAYAPLTCYFP	1.45 log2 (difference from the parental peptide)
chain 1 EEDDYTAYAPLTYYFT	-5.99 log2 (difference from the parental peptide)
chain 1 EEDDYTAYAPLTCYRT	0.256 log2 (difference from the parental peptide)
chain 1 EEDDYTAYAPGTCYFT	-4.26 log2 (difference from the parental peptide)
chain 1 EEDDYTAFAPLTCYFT	0.697 log2 (difference from the parental peptide)
chain 1 EEDDYTAYAPLTCYFH	0.117 log2 (difference from the parental peptide)
chain 1 EEDDVTAYAPLTCYFT	-5.67 log2 (difference from the parental peptide)
chain 1 QEDDYTAYAPLTCYFT	-0.262 log2 (difference from the parental peptide)
chain 1 EEDDTTAYAPLTCYFT	-4.65 log2 (difference from the parental peptide)
chain 1 EEDDYTAYAPETCYFT	-2.34 log2 (difference from the parental peptide)
chain 1 ESDDYTAYAPLTCYFT	-2.25 log2 (difference from the parental peptide)
chain 1 EEDDYTAIAPLTCYFT	-7.37 log2 (difference from the parental peptide)

Variant	enrichment
chain 1 EEDLYTAYAPLTCYFT	-3.89 log2 (difference from the parental peptide)
chain 1 EEDDYGAYAPLTCYFT	2.91 log2 (difference from the parental peptide)
chain 1 EEDDYTAYAPFTCYFT	-0.923 log2 (difference from the parental peptide)
chain 1 EEDDYTAYIPLTCYFT	-7.98 log2 (difference from the parental peptide)
chain 1 EEDDYTAYAPLTCYQT	0.832 log2 (difference from the parental peptide)
chain 1 YEDDYTAYAPLTCYFT	-1.6 log2 (difference from the parental peptide)
chain 1 EEDDYTAYAPPTCYFT	-7.67 log2 (difference from the parental peptide)
chain 1 EEDVYTAYAPLTCYFT	-4.25 log2 (difference from the parental peptide)
chain 1 EEDDYTAYAPLTCYFE	0.827 log2 (difference from the parental peptide)
chain 1 EADDYTAYAPLTCYFT	-0.79 log2 (difference from the parental peptide)
chain 1 EEDDYTAYSPLTCYFT	-0.615 log2 (difference from the parental peptide)
chain 1 EEDDYTAYHPLTCYFT	-6.2 log2 (difference from the parental peptide)
chain 1 EEDDYTAYAPSTCYFT	-0.188 log2 (difference from the parental peptide)
chain 1 EDDDYTAYAPLTCYFT	1.08 log2 (difference from the parental peptide)
chain 1 EEDDYTAYAPKTCYFT	1.88 log2 (difference from the parental peptide)
chain 1 EEDDYTANAPLTCYFT	-2.94 log2 (difference from the parental peptide)
chain 1 EEDDYTAYAPLTNYFT	-7.77 log2 (difference from the parental peptide)
chain 1 EEDDYLAYAPLTCYFT	-2.59 log2 (difference from the parental peptide)
chain 1 EEDDYEAYAPLTCYFT	2.94 log2 (difference from the parental peptide)
chain 1 EESDYTAYAPLTCYFT	-2.37 log2 (difference from the parental peptide)
chain 1 EEDDYTQYAPLTCYFT	2.27 log2 (difference from the parental peptide)
chain 1 EEDDYTAYAYLTCYFT	-7.13 log2 (difference from the parental peptide)
chain 1 EEDDYVAYAPLTCYFT	-3.51 log2 (difference from the parental peptide)

Variant	enrichment
chain 1 EEDDYTAYAPLTIYFT	-3.66 log2 (difference from the parental peptide)
chain 1 EEDDYTAYYPLTCYFT	-5.65 log2 (difference from the parental peptide)
chain 1 REDDYTAYAPLTCYFT	-3.09 log2 (difference from the parental peptide)
chain 1 VEDDYTAYAPLTCYFT	-1.21 log2 (difference from the parental peptide)
chain 1 SEDDYTAYAPLTCYFT	-0.537 log2 (difference from the parental peptide)
chain 1 EEDDYTAYAPLTCYST	-0.0882 log2 (difference from the parental peptide)
chain 1 EEDDYTAYAPLTGYFT	-9 log2 (difference from the parental peptide)
chain 1 EEDDYTAYAPLTCMFT	-2.24 log2 (difference from the parental peptide)
chain 1 EEDDYTAYAPLTCLFT	-2.84 log2 (difference from the parental peptide)
chain 1 EEDDYTDYAPLTCYFT	1.81 log2 (difference from the parental peptide)
chain 1 EEDDYTAYGPLTCYFT	-5.26 log2 (difference from the parental peptide)
chain 1 EEDDMTAYAPLTCYFT	-3.3 log2 (difference from the parental peptide)
chain 1 EEDDHTAYAPLTCYFT	-5.89 log2 (difference from the parental peptide)
chain 1 EEDDYTAYAPLTCYIT	0.969 log2 (difference from the parental peptide)
chain 1 EEDDYTAYAPLTCWFT	-0.462 log2 (difference from the parental peptide)
chain 1 EEDDYTAPAPLTCYFT	-0.864 log2 (difference from the parental peptide)
chain 1 EEDDYTAYAELTCYFT	-4.88 log2 (difference from the parental peptide)
chain 1 EEDDYTAYFPLTCYFT	-6.63 log2 (difference from the parental peptide)
chain 1 EEDDYTAYAPLTCHFT	-0.0476 log2 (difference from the parental peptide)
chain 1 EEDGYTAYAPLTCYFT	-4.2 log2 (difference from the parental peptide)
chain 1 EEIDYTAYAPLTCYFT	-3.64 log2 (difference from the parental peptide)
chain 1 ERDDYTAYAPLTCYFT	-4.37 log2 (difference from the parental peptide)
chain 1 EERDYTAYAPLTCYFT	-4.7 log2 (difference from the parental peptide)

Variant	enrichment
chain 1 EEDDYTFYAPLTCYFT	-2.35 log2 (difference from the parental peptide)
chain 1 IEDDYTAYAPLTCYFT	-0.889 log2 (difference from the parental peptide)
chain 1 EEDDYTAYAPLTCKFT	-5.73 log2 (difference from the parental peptide)
chain 1 EEDDYTAYAPLTCFFT	0.581 log2 (difference from the parental peptide)
chain 1 EEDDYTAYAPLTAYFT	-7.87 log2 (difference from the parental peptide)
chain 1 EEDDYTAYQPLTCYFT	-0.79 log2 (difference from the parental peptide)
chain 1 EEDDYTAYAPLTCCFT	-4.56 log2 (difference from the parental peptide)
chain 1 EEDDWTAYAPLTCYFT	1.96 log2 (difference from the parental peptide)
chain 1 EEDDYTAYAPDTCYFT	-7.07 log2 (difference from the parental peptide)
chain 1 EEDDYTAYAPLTCYFN	0.632 log2 (difference from the parental peptide)
chain 1 EEDFYTAYAPLTCYFT	-3.98 log2 (difference from the parental peptide)
chain 1 EEDDYTAVAPLTCYFT	-2.68 log2 (difference from the parental peptide)
chain 1 MEDDYTAYAPLTCYFT	-0.205 log2 (difference from the parental peptide)
chain 1 EEDDYTAYVPLTCYFT	-8.22 log2 (difference from the parental peptide)
chain 1 EEDDYKAYAPLTCYFT	-1.03 log2 (difference from the parental peptide)
chain 1 EEDDYFAYAPLTCYFT	-4.46 log2 (difference from the parental peptide)
chain 1 EEDDYTHYAPLTCYFT	-0.536 log2 (difference from the parental peptide)
chain 1 EEDDYTAYAPLTFYFT	-8.2 log2 (difference from the parental peptide)
chain 1 EEDDYTAYAPLTCVFT	-1.84 log2 (difference from the parental peptide)
chain 1 EEDDYTAYAPLQCYFT	1 log2 (difference from the parental peptide)
chain 1 EEDDYTAYAPLTCYFV	-0.281 log2 (difference from the parental peptide)
chain 1 EPDDYTAYAPLTCYFT	-3.03 log2 (difference from the parental peptide)
chain 1 EEDDYTAYAPLTCYKT	0.923 log2 (difference from the parental peptide)

Variant	enrichment
chain 1 EEDDYTAYAPLFCYFT	2.42 log2 (difference from the parental peptide)
chain 1 EEDDYTAYAPLTSYFT	-4.84 log2 (difference from the parental peptide)
chain 1 EEDDYTAYAPLKCYFT	-2.25 log2 (difference from the parental peptide)
chain 1 EEDDYTAYAPLSCYFT	0.347 log2 (difference from the parental peptide)
chain 1 EEDDYTAYACLTCYFT	-7.71 log2 (difference from the parental peptide)
chain 1 EEDDYTAYAPLTCYFI	-0.308 log2 (difference from the parental peptide)
chain 1 EEDQYTAYAPLTCYFT	-3.05 log2 (difference from the parental peptide)
chain 1 EEDDYTAYAPLTCYWT	-1.58 log2 (difference from the parental peptide)
chain 1 EEDTYTAYAPLTCYFT	-4.12 log2 (difference from the parental peptide)
chain 1 EEDDYTAYAPLTWYFT	-6.63 log2 (difference from the parental peptide)
chain 1 EEDDYTAYAPCTCYFT	0.222 log2 (difference from the parental peptide)
chain 1 EENDYTAYAPLTCYFT	-2.11 log2 (difference from the parental peptide)
chain 1 EHDDYTAYAPLTCYFT	-2.04 log2 (difference from the parental peptide)
chain 1 EEDDYTAYAPLCCYFT	-4.88 log2 (difference from the parental peptide)
chain 1 EEDDYTAYAPLPCYFT	0.2 log2 (difference from the parental peptide)
chain 1 EEDDYTAYAPLTCYDT	-2.26 log2 (difference from the parental peptide)
chain 1 EEDDYTAYAALTCYFT	-7.28 log2 (difference from the parental peptide)
chain 1 EEDDYTAYAPLRCYFT	-1.17 log2 (difference from the parental peptide)
chain 1 EEDDYTAYAPLTCYCT	-4.83 log2 (difference from the parental peptide)
chain 1 EEDDYTAYMPLTCYFT	-3.9 log2 (difference from the parental peptide)
